# Results: patent US20230416363A1 (KADMON, published 2023)
# Substitutions are numbered along the chain they refer to.
# T1: mPD1 (soluble, ELISA of Examples 20 and 24) (mouse, UniProt Q02242 25-167, limits assumed)
# T1 construct: also called Biotin-mPD1
# T1 sequence (looked up): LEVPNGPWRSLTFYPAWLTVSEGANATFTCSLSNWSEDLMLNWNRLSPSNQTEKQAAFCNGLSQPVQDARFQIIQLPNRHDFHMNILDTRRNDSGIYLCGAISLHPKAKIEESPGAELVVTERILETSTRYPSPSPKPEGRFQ
# T2: mouse PD-1 expressed on cells (mouse, UniProt Q02242 25-288)
# T2 construct: whole, on cells
# T2 sequence (looked up): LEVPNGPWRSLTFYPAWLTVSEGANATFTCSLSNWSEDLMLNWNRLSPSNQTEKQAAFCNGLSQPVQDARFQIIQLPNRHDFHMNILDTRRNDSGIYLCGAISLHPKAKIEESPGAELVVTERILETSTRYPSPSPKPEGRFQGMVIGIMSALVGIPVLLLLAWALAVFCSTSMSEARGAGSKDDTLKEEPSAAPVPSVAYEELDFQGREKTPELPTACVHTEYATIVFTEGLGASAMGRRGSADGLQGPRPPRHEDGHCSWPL
# T3: mPD-1-Fc (mouse; human, UniProt Q02242 25-167, limits assumed)
# T3 construct: domain: IgV domain; not shown: human IgG1 Fc
# T3 sequence (looked up): T1 sequence (looked up)
# T4: mPD-1-his (mouse, UniProt Q02242 25-167, limits assumed)
# T4 construct: domain: IgV domain
# T4 sequence: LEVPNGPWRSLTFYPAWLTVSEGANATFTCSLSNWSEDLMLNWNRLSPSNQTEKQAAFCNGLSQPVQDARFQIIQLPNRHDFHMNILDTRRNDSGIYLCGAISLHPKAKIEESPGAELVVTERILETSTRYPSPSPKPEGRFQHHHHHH
# B1: 2C-m3A7/IL-15 (other)
# light: DIQMTQSPSSLSASVGDRVTITCRASRSISNWLAWYQQKPGKAPKLLIYAASSLQSGVPSRFSGSGSGTDFTLTISSLQPEDFATYYCQQSYSAPVTFGQGTKVEIKRADAAPTVSIFPPSSEQLTSGGASVVCFLNNFYPKDINVKWKIDGSERQNGVLNSWTDQDSKDSTYSMSSTLTLTKDEYERHNSYTCEATHKTSTSPIVKSFNRNEC
# heavy: QVQLVQSGAEVKKPGASVKVSCKASGHTFTSYYIHWVRQAPGQGLEWMGIINPSGGSTSYAQKFQGRVTMTRDTSTSTVYMELSSLRSEDTAVYYCARDRAYGGAGDYWGQGTLVTVSSAKTTAPSVYPLAPVCGDTTGSSVTLGCLVKGYFPEPVTLTWNSGSLSSGVHTFPAVLQSDLYTLSSSVTVTSSTWPSQSITCNVAHPASSTKVDKKIEPRGPTIKPCPPCKCPAPNAAGGPSVFIFPPKIKDVLMISLSPIVTCVVVDVSEDDPDVQISWFVNNVEVHTAQTQTHREDYNSTLRVVSALPIQHQDWMSGKEFKCKVNNKDLGAPIERTISKPKGSVRAPQVYVLPPPEEEMTKKQVTLTCMVTDFMPEDIYVEWTNNGKTELNYKNTEPVLDSDGSYFMYSKLRVEKKNWVERNSYSCSVVHEGLHNHHTTKSFSRTPGSCPPPVSIEHADIRVKNYSVNSRERYVCNSGFKRKAGTSTLIECVINKNTNVAHWTTPSLKCIRDPALVHQRPAPPSGGSGGGGSGGGSGGGGSLQNWIDVRYDLEKIESLIQSIHIDTTLYTDSDFHPSCKVTAMNCFLLELQVILHEYSNMTLNETVRNVLYLANSTLSSNKNVAESGCKECEELEEKTFTEFLQSFIRIVQMFINTS
# notes: antibody-cytokine fusion
# B2: 1C-m3A7/IL-15 (other)
# light: B1 light
# heavy 1: QVQLVQSGAEVKKPGASVKVSCKASGHTFTSYYIHWVRQAPGQGLEWMGIINPSGGSTSYAQKFQGRVTMTRDTSTSTVYMELSSLRSEDTAVYYCARDRAYGGAGDYWGQGTLVTVSSAKTTAPSVYPLAPVCGDTTGSSVTLGCLVKGYFPEPVTLTWNSGSLSSGVHTFPAVLQSDLYTLSSSVTVTSSTWPSQSITCNVAHPASSTKVDKKIEPRGPTIKPCPPCKCPAPNAAGGPSVFIFPPKIKDVLMISLSPIVTCVVVDVSEDDPDVQISWFVNNVEVHTAQTQTHREDYNSTLRVVSALPIQHQDWMSGKEFKCKVNNKDLGAPIERTISKPKGSVRAPQVYVYPPPEEEMTKKQVTLTCMVTDFMPEDIYVEWTNNGKTELNYKNTEPVLDSDGSYAMVSKLRVEKKNWVERNSYSCSVVHEGLHNHHTTKSFSRTPGK
# heavy 2: B1 heavy with T368L, K394L, T396W
# notes: antibody-cytokine fusion
# B3: 2N-m3A7/IL-15 (other)
# light: B1 light
# heavy: ITCPPPVSIEHADIRVKNYSVNSRERYVCNSGFKRKAGTSTLIECVINKNTNVAHWTTPSLKCIRDPALVHQRPAPPSGGSGGGGSGGGSGGGGSLQNWIDVRYDLEKIESLIQSIHIDTTLYTDSDFHPSCKVTAMNCFLLELQVILHEYSNMTLNETVRNVLYLANSTLSSNKNVAESGCKECEELEEKTFTEFLQSFIRIVQMFINTSGGGGSGGGGSGGGGSGGGGSGGGGSGGGGSQVQLVQSGAEVKKPGASVKVSCKASGHTFTSYYIHWVRQAPGQGLEWMGIINPSGGSTSYAQKFQGRVTMTRDTSTSTVYMELSSLRSEDTAVYYCARDRAYGGAGDYWGQGTLVTVSSAKTTAPSVYPLAPVCGDTTGSSVTLGCLVKGYFPEPVTLTWNSGSLSSGVHTFPAVLQSDLYTLSSSVTVTSSTWPSQSITCNVAHPASSTKVDKKIEPRGPTIKPCPPCKCPAPNAAGGPSVFIFPPKIKDVLMISLSPIVTCVVVDVSEDDPDVQISWFVNNVEVHTAQTQTHREDYNSTLRVVSALPIQHQDWMSGKEFKCKVNNKDLGAPIERTISKPKGSVRAPQVYVLPPPEEEMTKKQVTLTCMVTDFMPEDIYVEWTNNGKTELNYKNTEPVLDSDGSYFMYSKLRVEKKNWVERNSYSCSVVHEGLHNHHTTKSFSRTPGK
# notes: antibody-cytokine fusion
# B4: 1N-m3A7/IL-15 (other)
# light: B1 light
# heavy 1: B2 heavy 1
# heavy 2: B3 heavy with T609L, K635L, T637W
# notes: antibody-cytokine fusion
# B5: m2C1 (antibody, V domains shown)
# VH: QVQLVQSGAEVKKPGASVKVSCKASGHTFTSYYIHWVRQAPGQGLEWMGIINPSGGSTSYAQKFQGRVTMTRDTSTSTVYMELSSLRSEDTAVYYCARDRAYGGAGDYWGQGTLVTVSS
# VL: DIQMTQSPSSLSASVGDRVTITCRASRSISSWLAWYQQKPGKAPKLLIYAASSLQSGVPSRFSGSGSGTDFTLTISSLQPEDFATYYCQQSYSIPATFGQGTKVEIK
# notes: R3A9 derivative; also called m3CM (apparent misprint)
# B6: m2A1 (antibody, V domains shown)
# VH: B5 VH
# VL: B5 VL with S28G, I94P, A96W
# notes: R3A9 derivative; also called m2AM (apparent misprint)
# Key:
# [1] = biological target: T1, mPD1 (soluble, ELISA of Examples 20 and …); experiment: competition ELISA, blocking of mPD-L1 binding to mPD-1
# [2] = biological target: T1, mPD1 (soluble, ELISA of Examples 20 and …); experiment: ELISA, dose-response binding to mPD-1
# [3] = biological target: T2, mouse PD-1 expressed on cells; experiment: flow cytometry on mPD-1-HEK293 cells
# mPD-1-Fc [4] = biological target: T3, mPD-1-Fc; experiment: kinetics, mPD-1-Fc (off rate outside the machine limit)
# mPD-1-his [5] = biological target: T4, mPD-1-his; experiment: kinetics (Ka/Kd/KD; method not named), mPD-1-his
# [6] = biological target: T2, mouse PD-1 expressed on cells; experiment: cell-based or functional assay
# [7] = biological target: T1, mPD1 (soluble, ELISA of Examples 20 and …); experiment: ELISA, mPD1
# [8] = biological target: T2, mouse PD-1 expressed on cells; experiment: flow cytometry, mPD1-293 cells
# mPD-1-Fc [9] = biological target: T3, mPD-1-Fc; experiment: SPR Biacore, mPD1-Fc
# hPD-1-Fc = biological target: T5, hPD-1-Fc (human, UniProt Q15116 25-167); experiment: SPR Biacore, hPD1-Fc
# T5 construct: domain: IgV domain; also called human PD-1-Fc; not shown: human IgG1 Fc
# [10] = biological target: T1, mPD1 (soluble, ELISA of Examples 20 and …); experiment: blocking ELISA, mPD1 to mPDL1
# [11] = biological target: T2, mouse PD-1 expressed on cells; experiment: flow cytometry, mPD1-eff cells
# [12] = biological target: T6, hPD1 (soluble, ELISA of Example 20) (human, UniProt Q15116 25-167, limits assumed); experiment: ELISA, hPD1
# [13] = biological target: T2, mouse PD-1 expressed on cells; experiment: cell-based or functional assay; remark: listed apart in the source
# [14] = biological target: T7, human PD-1 expressed on cells (human, UniProt Q15116 25-288); experiment: cell-based or functional assay
# [15] = biological target: T7, human PD-1 expressed on cells; experiment: flow cytometry, hPD1-293 cells
# mPD-1-his [16] = biological target: T4, mPD-1-his; experiment: SPR Biacore, mPD1-his
# [17] = biological target: T1, mPD1 (soluble, ELISA of Examples 20 and …); experiment: ELISA, biotin-mPD1 on streptavidin
# [18] = biological target: T6, hPD1 (soluble, ELISA of Example 20); experiment: blocking ELISA, hPD1 to hPDL1
# T7 sequence (Q15116 25-288): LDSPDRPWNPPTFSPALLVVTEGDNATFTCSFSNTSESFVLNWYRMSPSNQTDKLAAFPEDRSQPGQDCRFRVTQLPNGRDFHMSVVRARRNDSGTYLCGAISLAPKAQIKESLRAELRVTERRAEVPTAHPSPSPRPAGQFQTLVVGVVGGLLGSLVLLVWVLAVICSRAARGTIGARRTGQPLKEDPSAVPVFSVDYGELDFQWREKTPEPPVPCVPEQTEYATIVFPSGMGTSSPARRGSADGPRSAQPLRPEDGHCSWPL
# T6 sequence (Q15116 25-167 limits assumed): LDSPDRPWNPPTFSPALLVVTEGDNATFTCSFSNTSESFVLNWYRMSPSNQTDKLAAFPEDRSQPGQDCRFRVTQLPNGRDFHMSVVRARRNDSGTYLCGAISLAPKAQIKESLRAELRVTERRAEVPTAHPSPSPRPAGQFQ
# T5 sequence (Q15116 25-167 limits assumed): as above
Binder,IC50 (read off the curve) [1] [nM],EC50 (read off the curve) [2] [nM],EC50 (read off the curve) [3] [nM],Kd (mPD-1-Fc [4]) [nM],Kd (mPD-1-his [5]) [nM],EC50 (read off the curve) [6] [nM],EC50 [7] [nM],EC50 [8] [nM],Kd (mPD-1-Fc [9]) [nM],koff (mPD-1-Fc [9]) [s⁻¹],kon (mPD-1-Fc [9]) [M⁻¹ s⁻¹],Kd (hPD-1-Fc) [nM],koff (hPD-1-Fc) [s⁻¹],kon (hPD-1-Fc) [M⁻¹ s⁻¹],IC50 [10] [nM],EC50 [11] [nM],EC50 [12] [nM],EC50 [15] [nM],Kd (mPD-1-his [16]) [nM],koff (mPD-1-his [16]) [s⁻¹],also measured
B1,~0.2,~0.2,~1,0.0593,0.247,~0.7,–,–,–,–,–,–,–,–,–,–,–,–,–,–,–
B2,~0.3,~0.1,~0.7,0.0927,0.296,~0.6,–,–,–,–,–,–,–,–,–,–,–,–,–,–,–
B3,~0.3,~0.3,~1,0.00909,0.283,~2,–,–,–,–,–,–,–,–,–,–,–,–,–,–,–
B4,~0.3,~0.2,~0.8,0.0878,0.457,~0.8,–,–,–,–,–,–,–,–,–,–,–,–,–,–,–
B5,–,–,–,–,–,–,0.572,0.411,2.91,0.000583,200000,2.81,0.000355,126000,0.464,0.373,0.149,1.26,3.22,0.000693,"IC50, Promega blockade bioassay [13]: 1.13 nM; IC50, Promega blockade bioassay [14]: 31.2 nM; kon (mPD-1-his [16]): 215000 M⁻¹ s⁻¹; EC50 [17]: 0.291 nM; IC50 [18]: 5.71 nM"
B6,–,–,–,–,–,–,0.304,0.433,2.73,0.000905,333000,1.67,0.000401,240000,0.442,0.253,0.146,0.987,2.83,0.00107,kon (mPD-1-his [16]): 375000 M⁻¹ s⁻¹; EC50 [17]: 0.14 nM; IC50 [18]: 6.01 nM
